These results are taken from patent US20230158180A1 (SLOAN KETTERING INSTITUTE FOR CANCER RESEARCH, published 2023).

Non-standard residues stand in square brackets, D forms with d. Groups on a side chain read outwards from the residue. *: point of attachment. Cy5 silica nanoparticle = Cy5 dye-containing core-shell silica nanoparticle (~7 nm); PEG = not defined here; 124I = [124I]*

In test [1] the target is melanocortin-1 receptor (MC1R) on murine B16/F1 and B16F10 melanoma cells (mouse) (UniProt Q01727). Description: same type of competitive binding assay (given for reference).
melanocortin-1 receptor (MC1R) on murine B16/F1 and B16F10 melanoma cells (mouse), sequence (Q01727 whole entry, one chain of several): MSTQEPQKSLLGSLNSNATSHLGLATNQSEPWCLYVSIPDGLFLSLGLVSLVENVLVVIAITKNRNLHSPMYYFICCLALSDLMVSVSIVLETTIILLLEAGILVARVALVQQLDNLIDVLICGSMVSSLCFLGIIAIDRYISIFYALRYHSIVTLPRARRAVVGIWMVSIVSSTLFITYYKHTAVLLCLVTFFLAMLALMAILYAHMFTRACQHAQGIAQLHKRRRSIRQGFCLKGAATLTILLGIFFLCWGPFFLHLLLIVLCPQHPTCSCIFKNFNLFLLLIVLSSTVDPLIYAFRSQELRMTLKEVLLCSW
Test [2] shares this target. Description: competitive binding against ^125I-NDP, cultured B16/F1 melanoma cells.
For test [3] the target is unchanged. The test is described as follows: flow cytometry dose response, B16F10 melanoma cells.
The target of test [4] is melanocortin-1 receptor (MC1R) on human M21 melanoma cells (human) (UniProt Q01726). The test is described as follows: flow cytometry dose response, M21 melanoma cells. Background: Flow cytometry measures light scatter and fluorescence of single cells or particles in a stream.
melanocortin-1 receptor (MC1R) on human M21 melanoma cells (human), sequence (Q01726 whole entry): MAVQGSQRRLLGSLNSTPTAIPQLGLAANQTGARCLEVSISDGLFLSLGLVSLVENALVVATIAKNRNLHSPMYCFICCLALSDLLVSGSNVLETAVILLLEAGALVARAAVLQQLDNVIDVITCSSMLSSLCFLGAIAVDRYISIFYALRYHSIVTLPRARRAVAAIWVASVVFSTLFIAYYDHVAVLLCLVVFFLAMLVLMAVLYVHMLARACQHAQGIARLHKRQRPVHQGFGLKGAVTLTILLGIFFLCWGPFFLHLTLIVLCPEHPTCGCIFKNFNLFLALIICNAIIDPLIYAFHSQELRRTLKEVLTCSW
For test [5], the target named is T1, αvβ3 integrin receptor (human, on M21 melanoma cells and HUVEC cells) (human, UniProt P06756 31-1048; P05106 27-788). Description: cell-based or functional assay.
T1 sequence (P06756 31-1048, chain 1 of 2): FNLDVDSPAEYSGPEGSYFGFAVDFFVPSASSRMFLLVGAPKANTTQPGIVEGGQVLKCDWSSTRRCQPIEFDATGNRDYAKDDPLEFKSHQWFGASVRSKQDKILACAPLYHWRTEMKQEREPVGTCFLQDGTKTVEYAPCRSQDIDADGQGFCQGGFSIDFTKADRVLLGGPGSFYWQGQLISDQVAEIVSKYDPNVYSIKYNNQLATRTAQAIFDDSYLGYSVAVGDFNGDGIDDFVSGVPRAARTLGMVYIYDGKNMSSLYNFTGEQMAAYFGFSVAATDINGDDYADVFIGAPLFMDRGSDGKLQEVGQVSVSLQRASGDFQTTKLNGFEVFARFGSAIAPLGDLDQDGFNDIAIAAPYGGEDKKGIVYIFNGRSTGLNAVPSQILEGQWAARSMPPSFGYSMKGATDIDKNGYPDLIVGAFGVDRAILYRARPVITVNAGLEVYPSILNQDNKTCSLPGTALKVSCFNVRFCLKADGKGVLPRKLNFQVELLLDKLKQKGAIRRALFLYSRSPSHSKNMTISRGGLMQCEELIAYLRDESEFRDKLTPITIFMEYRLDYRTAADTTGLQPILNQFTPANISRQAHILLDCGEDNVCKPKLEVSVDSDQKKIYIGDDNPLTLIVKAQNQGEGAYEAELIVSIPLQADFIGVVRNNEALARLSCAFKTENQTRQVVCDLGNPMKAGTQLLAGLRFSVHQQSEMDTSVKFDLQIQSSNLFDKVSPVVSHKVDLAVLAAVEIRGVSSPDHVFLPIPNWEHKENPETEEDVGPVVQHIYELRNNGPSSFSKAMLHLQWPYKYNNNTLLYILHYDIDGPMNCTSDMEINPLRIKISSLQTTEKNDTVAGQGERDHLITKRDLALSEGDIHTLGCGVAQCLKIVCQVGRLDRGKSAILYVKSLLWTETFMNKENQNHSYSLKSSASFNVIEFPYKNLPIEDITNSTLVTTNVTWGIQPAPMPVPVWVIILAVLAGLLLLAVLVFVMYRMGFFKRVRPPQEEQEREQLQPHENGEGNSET
T1 sequence (P05106 27-788, chain 2 of 2): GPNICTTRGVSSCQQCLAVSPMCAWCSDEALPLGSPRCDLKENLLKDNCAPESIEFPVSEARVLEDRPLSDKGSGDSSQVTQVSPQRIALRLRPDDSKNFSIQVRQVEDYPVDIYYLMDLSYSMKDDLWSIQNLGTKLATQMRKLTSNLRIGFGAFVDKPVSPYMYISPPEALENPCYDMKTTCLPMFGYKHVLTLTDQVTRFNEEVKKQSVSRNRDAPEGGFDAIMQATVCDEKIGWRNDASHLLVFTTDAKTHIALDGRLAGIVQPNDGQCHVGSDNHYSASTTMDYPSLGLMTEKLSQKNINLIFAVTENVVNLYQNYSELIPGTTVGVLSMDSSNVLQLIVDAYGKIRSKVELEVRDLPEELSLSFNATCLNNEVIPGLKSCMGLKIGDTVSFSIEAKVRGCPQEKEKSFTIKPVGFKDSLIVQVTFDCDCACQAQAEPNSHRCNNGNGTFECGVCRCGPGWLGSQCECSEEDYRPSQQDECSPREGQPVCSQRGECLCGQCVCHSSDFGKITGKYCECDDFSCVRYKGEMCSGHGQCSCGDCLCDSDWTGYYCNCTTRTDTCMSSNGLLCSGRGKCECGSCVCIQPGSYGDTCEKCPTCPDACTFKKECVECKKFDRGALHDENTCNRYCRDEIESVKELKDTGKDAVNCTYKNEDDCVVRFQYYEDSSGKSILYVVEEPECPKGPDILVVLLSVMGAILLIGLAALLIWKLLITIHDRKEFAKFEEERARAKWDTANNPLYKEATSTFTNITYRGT
Test [6] deals with T1, αvβ3 integrin receptor (human, on M21 …). Description: competitive binding, gamma counting, M21 cells. The procedure:
Nonspecific binding was determined in the presence of a 1000-fold excess of cRGD (Peptides International, Louisville, Ky.). Scatchard plots of the binding data were generated and analyzed using linear regression analyses (Microsoft Excel 2007) to derive receptor-binding parameters (Kd, Bmax, IC50).
To examine in vitro binding affinity and specificity of ¹²⁴I-cRGDY-PEG-dots and ¹²⁴I-PEGdots to tumor and vascular endothelial surfaces, αᵥβ₃ integrin-overexpressing (M21) and nonexpressing (M21L) melanoma and human umbilical vein endothelial (HUVECs) cell lines were used. Highly specific linear and saturable binding of the cRGDY-PEG-dots was observed over a range of particle concentrations (0 to 8 ng/ml) and incubation times (up to 5-hrs), with maximum differential binding at 4-hr and ˜2.0 ng/ml particle concentration (data not shown) using flow cytometry. Receptor-binding specificity of ¹²⁴I-cRGDY-PEG dots was tested using γ-counting methods after initially incubating M21 cells with excess non-radiolabeled cRGD and then adding various concentrations of the radiolabeled targeted probe (FIG. 8A). […] Based on the Bmax value, the αᵥβ₃ integrin receptor density was estimated to be […] per M21 cell, in reasonable agreement with the previously published estimate of 5.6×10⁴ for this cell line. Cressman, et al., Binding and uptake of RGD-containing ligands to cellular αᵥβ₃ integrins. […]

Test [7] shares this target. Description: Scatchard analysis, gamma counting, M21 cells. The procedure: To assay particle binding and specificity for M21 cells, 24-well plates were coated with 10 μg/ml collagen type I (BD Biosciences, Bedford, Mass.) in phosphate buffered saline (PBS) and incubated (37° C., 30 min). M21 cells (3.0-4.0×10^5 cells/well) were grown to confluency and washed with RPMI 1640 media/0.5% bovine serum albumin (BSA). ¹²⁴I-cRGD-PEG-nanoparticles (0-4.0 ng/ml) were added to wells and cells incubated (25° C., 4 hours), washed with RPMI 1640 media/0.5% BSA, and dissolved in 0.2 M NaOH. […] Nonspecific binding was determined in the presence of a 1000-fold excess of cRGD (Peptides International, Louisville, Ky.). Scatchard plots of the binding data were generated and analyzed using linear regression analyses (Microsoft Excel 2007) to derive receptor-binding parameters (Kd, Bmax, IC50).
To examine in vitro binding affinity and specificity of ¹²⁴I-cRGDY-PEG-dots and ¹²⁴I-PEGdots to tumor and vascular endothelial surfaces, αᵥβ₃ integrin-overexpressing (M21) and nonexpressing (M21L) melanoma and human umbilical vein endothelial (HUVECs) cell lines were used. Highly specific linear and saturable binding of the cRGDY-PEG-dots was observed over a range of particle concentrations (0 to 8 ng/ml) and incubation times (up to 5-hrs), with maximum differential binding at 4-hr and ˜2.0 ng/ml particle concentration (data not shown) using flow cytometry. […]

By IC50 is commonly meant the concentration needed to halve the response being measured. A lower IC50 goes with greater potency in that assay. On to “DOTA-ReCCMSH (original ReCCMSH targeting molecule) (peptide)”, for which, in test [1], the IC50 was determined as 2.1 nM.

“alpha-MSH-PEG-Cy5-C dots (N-Ac-Cys-(Ahx)2-D-Lys-ReCCMSH peptide-bound nanoparticles)” registered an IC50 in test [2] of 0.66 nM. For the same molecule, the saturation concentration in test [3] and in test [4] was 100 nM in each case.

B1: cRGDY-PEG-dots (non-radiolabeled, cRGDY peptide-bearing, PEG-coated Cy5 core-shell silica nanoparticles) (other)
peptide: cyclo(RGD[dY]C([maleimide-PEG-Cy5 silica nanoparticle]))
modifications: not fully specified; reading uncertain; also: Cys linked via maleimide to PEG on Cy5 silica nanoparticle
For B1, in test [5], the “methylene blue uptake (absorbance) of attached M21 cells without particle pre-incubation relative to particle-exposed cells” value worked out at 2 fold and the “multivalent enhancement factor (ratio of the cRGD peptide to cRGDY-PEG-dot IC50 values), anti-adhesion assay, M21 cells on vitronectin-coated plates” value was above 2 fold.

B2: ^124I-cRGDY-PEG-dots (radioiodinated, cRGDY peptide-bearing, PEG-coated Cy5 core-shell silica nanoparticles) (other)
peptide: cyclo(RGD[dY](124I)C([maleimide-PEG-Cy5 silica nanoparticle]))
modifications: not fully specified; reading uncertain; also: Cys linked via maleimide to PEG on Cy5 silica nanoparticle
One may read the Kd as the free concentration of one partner at which half of the binding sites on the other are occupied at equilibrium, for simple one-to-one binding. Low values mean a tighter complex, high ones a looser complex. The molecule B2 showed an IC50 in test [6] of 1.2 nM. Also, the affinity in test [7], expressed as Kd, was 0.51 nM.
